Data on 1 molecule can be found in article PMC4293355 (Developmental cell, 2014).

The target in the test is G-actin (UniProt P68135 1-377). Nature of the test: fluorescence polarisation.

B1: TMR-SpWsp1(VCA) (domain or fragment)
chain: QDGRANLMASIRASGGMDLLKSRKVSASPSVASTKTSNPPVEAPPSNNLMDALASALNQRKTKVAQSDEEDEDDDEWD
modifications: TMR-labeled (position not given)
As usually defined, the Kd is the constant that tells how readily two partners part at equilibrium. Higher therefore signals lower affinity. B1 returned a Kd of about 21 nM.
